{"source": "the nanobody polyreactivity screen of Harvey et al. (2022)"}
{"assay": "yeast display, Sf9 membrane polyspecificity reagent, FACS + sequencing; frameworks hold sequencing errors", "summary_of_the_method": "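A synthetic nanobody library was expressed on Saccharomyces cerevisiae BJ5465 by galactose induction for 36–48 hours. The library was stained for 1 hour at 4 °C with 10% biotinylated, detergent-solubilized Sf9 membrane reagent and enriched with streptavidin microbeads before FACS. Low and high (top ~1%) gates were set on anti-HA fluorescence for expression and streptavidin fluorescence for reagent binding, and each polyreactivity label reflects the gate of origin.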"}
{"sequence": "QVQLVQTGRGLVQAGGSLRLICAASANIFYTNAMGWYRQAPGKERELVAAISGSGGRTYYADSVKGRFTISRDNAKNTVYLQMNSLKPEDTAVYYFNAVRRDYYDRTYGYWGQGTQVTVSS", "polyreactivity (PSR sort gate)": "low polyreactivity"}
{"sequence": "QVQLVVSGAGLVQAGGSLRLSCAASGRNVVRNAMGWSRQAPGNEREWVAAITSGGRTYYAVSVKGRFTISRDNAKNTVYLQMTSLTPEDTAVYSCSTETRPHSVKNSPISLPDDYWGQGTQETVSS", "polyreactivity (PSR sort gate)": "low polyreactivity"}
{"sequence": "QVQLVVSGGGLVQAGGSLRLSCAASGFIFYRYAMGWYRQAPGKEWELVAAISRSGGTTYYADSVKGRFTISRDNAKNTVYLQKNSLKPEDTAVYYCNVKRGTIGGYYYWGQGTQVTVSS", "polyreactivity (PSR sort gate)": "high polyreactivity"}
{"sequence": "QVQLVVSGGGLVQAGGSLRLSCAASGNTFTKYAMGWYRQAPGKERELVAGITRGGSTNYADSVKGRFTISRDNAKNTVYLQMNSLIPEDTAVYYCNARPVYGSRFYSAVRMEYWGQATQVTVSS", "polyreactivity (PSR sort gate)": "low polyreactivity"}
{"sequence": "QVQLVVSGGGLVQAGGSLRLSCAASGRTFRSYAMGWYRQEPGKERELVAAISDGGSTNYADSVKGRFTISRDNAKNTVYLQMNSLKPEDTAVYYCAAEFFFAVFRFYYWGQGTQVTVSS", "polyreactivity (PSR sort gate)": "low polyreactivity"}
{"sequence": "QVQLVVSGGGLVQAGGSLRLSCAASGSIFAQNVMGWYRQAPGKERELVAAISYCGGTTYYADSVKGRFTISRDNAMNSVYLQMNSLKPEDTAVYYCAAEFGVYEYDYWGQGTQVTVSS", "polyreactivity (PSR sort gate)": "low polyreactivity"}
{"sequence": "QVQLVVSGGGLVQAGGSLRLSCAASGSIFSRYTMGWYRVAPGKERELVAAITASGTRTYYADSVKGRFTISRDNAKNTVYLQMNSLKPEDTAVYYCNVVRGSRDVTYGYNYWGQGTQVTVSS", "polyreactivity (PSR sort gate)": "high polyreactivity"}
{"sequence": "QVQLVVSGGGLVQAGGSLRLSCAASGSTVVTYAMGWYRQAPGKERELVAAISRSGTSTYYADSVKGRYTISRDNAKYTVYLHLPSRKPEDTAVYDCAAYGPRVNGEIGREYYYWGQGTQVTVSS", "polyreactivity (PSR sort gate)": "low polyreactivity"}
{"sequence": "QVQLVVSGGGLVQAGGSLRLSFAASGFIFRYYGGGWYTPAPGKERELVAAITSTGRRYYADSVKGRFTISRDNAKNTVYLQMNSLKPEDTAVYYCAKAWLRWCEDYWGQGTQVTVSS", "polyreactivity (PSR sort gate)": "low polyreactivity"}
{"sequence": "QVQLVVSGVGLVQAGGSLRLSCAASGRIFSYYAMGWYRQAPGKEREFVATNSGSGGSTYYADSVKGRFTISRDNAKNTVYLEMNSLKPEDTAVYYCKARSYSYWSNWRNAGSYDYWGQGTQVTVSS", "polyreactivity (PSR sort gate)": "high polyreactivity"}
{"sequence": "QVQMQESGGGTVMAGGSLRLSCAASGTIFVRLDMGSYRQAPGKEREFVATIGSGSSTYYADSVKGSFTISRDNVNKSVYLQMNSLKPEDTAVYYCAVSAAEQCRDYYWDQGTQVTVSS", "polyreactivity (PSR sort gate)": "low polyreactivity"}
{"sequence": "QVQMQESRGGLVQAGGSLRLSCAASGYISYLDFMGWYRQAPGKERELVAGITTGATTNYADSVKGRFTISRDNGKNIVYQQMNSLKPEDTAVYFCAVIGGDTRGHPYWGQGTQLTVSS", "polyreactivity (PSR sort gate)": "low polyreactivity"}
{"sequence": "QVQPQESAGGLVQAGGSLLQSSAASAYIFPYYSMGWYRQAPGKERGLVACIAAGTTTNYADSVKGRFTISRDNAKNTVYLQMKSLKPEDAAVYYCAALKAFNTGHWYWGQGTQVTVSS", "polyreactivity (PSR sort gate)": "low polyreactivity"}
{"sequence": "QVQPQESGGGLVQAGGSLRLRCAASGTIFAFQTMGSYRQAPGKERELVASITYGSSTNYADSVKGRFTISRDNAKNTVYLQMNSLKPEDTAVFYCAVPQAQYYYDYWGQGTQVTVSS", "polyreactivity (PSR sort gate)": "high polyreactivity"}
{"sequence": "QVQPVESGGGLVQAGGSLRLSCAASASTFYYYAMGWSRQAPGKERELVASITTGGGSTYYADSVKGRFTISRDNAKKTVYLQMNSLNPEDTAVYYCNAGRYGSNLEYWGQGTQVTVSS", "polyreactivity (PSR sort gate)": "low polyreactivity"}
{"sequence": "QVQPVESGGGLVQAGGSLRLSCADSGSIIYYNAMGWYRQAPGKEREFVAAITSSGGSTYADSVKGRFTISRDNGKNTVYIQMNSMKPEDTAVYYCATVAHGLLSGSGYIYAYDYWGQGTQVTVSS", "polyreactivity (PSR sort gate)": "low polyreactivity"}
{"sequence": "QVQQQESGGGLEQAGGSLRLSCAASGTIFQLTVMGRYRQAPGKERELVASIDYGGNTNYADSVKGRFTISRDNAKKTVYLQMNSLKPEDTAVYYCAASSDSWTTHPYWGQGTQVTVSS", "polyreactivity (PSR sort gate)": "low polyreactivity"}
{"sequence": "QVQQQESGGGLVQAGGSLRLSCAASGNIFRFTRMGWYRQGPGQVREFVAGIGDGSTTYYADSVKGRFTISRDNAKNTVHLQMNSQKPEDTAVYSCAVGDSGFVHHPYWGQGTQVTVSS", "polyreactivity (PSR sort gate)": "high polyreactivity"}
{"sequence": "QVQQQESGGGLVQAGGSLRLSCAASGTIFQLTVMGRYRQASGKERELVASIDYGGNTNYADSVKGRFTISRDNAKNTVYLQMNSLKPEDTAVYFCAASSDSWTTHPYWGQGTQVTVSS", "polyreactivity (PSR sort gate)": "low polyreactivity"}
{"sequence": "QVQQQESGGGLVQASGSLRLSCAASGNIFPDYVMGWYRQGPGQEREFVANITGGSTTNYADSVKGRFSISRDNAKNTVYLQMNCLKQEDTAVYYCAVNFGTVVLYLYWGQGTQVTVSS", "polyreactivity (PSR sort gate)": "high polyreactivity"}
{"sequence": "QVQQQESGGGQVQAGGSLRLSCAASGTIFLYAFLGRYRQAPGKERELVAAIDVGTTTNYADSVKGRFTIRRDNANNTVYLQMNSLKPEDTAVYYCAATLGYLDDLGYWGQGTQVTVSS", "polyreactivity (PSR sort gate)": "low polyreactivity"}
{"sequence": "QVQQVESGGGLVQAGGSLRLSCAASGTFGYYAMGWYRQAPGKERELVAGITWSGGSTYYADSVKGRFTISRDNAKNTVYLQMNSLKPEDTAVYYCATSSYTGYWGQGTQVTVSS", "polyreactivity (PSR sort gate)": "low polyreactivity"}
{"sequence": "QVQREESGGGLVQAGGSLRLSCPASGITFWGYVMGWYRQAPGKERELVAAISSSGGRTYYADSVKGRFTISRDNAKNTVYLQMNSMKPEDTAVYYCAARFLYANGDSVDYDYWGQGTQVTVSS", "polyreactivity (PSR sort gate)": "high polyreactivity"}
{"sequence": "QVQRVESAAGLVQAGGSLRLSCAASGFIIVYYSMGWYRQAPGKERELVAAISRRGGSTYYADSVKGRFTISRDNAKNTVYLQMNSLKPEDTAVYYCNAVNVLAPSRGRRYDYWGQGTQVTVSS", "polyreactivity (PSR sort gate)": "high polyreactivity"}
{"sequence": "QVQRVESAGGLVQAGVSLRLSCAASGITFASNTMGWYRQAPGKARELVAAITRGDNTYYADSVKGRFTISRDNAKNTVYLHMNSLKPEDTAVYYCATEGYEIQYEHDYWGEGTQVTVSS", "polyreactivity (PSR sort gate)": "low polyreactivity"}
{"sequence": "QVQRVESAGRLVQAGGSLRLSCAPSGYTFYGYAMGWYRQAPGKESELVAAISGSGGSTYYADSVKGRFTMSRDNAKNTVYLQMNSLIPEDTAVYYCNKARYAIYRGDGYDYWGQGTEVTVSS", "polyreactivity (PSR sort gate)": "high polyreactivity"}
{"sequence": "QVQRVESGGALVQAGGSLRLSCAASGSIIGINAMGWYRPAPGKERELVAAINGGGSTYYADSVKGRFTISRDNAKNTVYLQMHSLKPEDTAVYYCAAEWGTSWYDYRGQGTQVTVSS", "polyreactivity (PSR sort gate)": "low polyreactivity"}
{"sequence": "QVQRVESGGGLFQAGGSLRLSCAASGSTFGYYAMGWYRQAPGKERELVPAISGSGTSTNYADSVKGRITISRDNAKNTVYLQMNSLKPEDTAVYYCATRYRYTGGGYYYRGQGTQVTVSS", "polyreactivity (PSR sort gate)": "low polyreactivity"}
{"sequence": "QVQRVESGGGLVQAGGRLRLSCAASASTLYSYAMGWNRQAPGKEREFVATISQIGVRTYYADSVKGRFTISRDNAKNTVYLQMNSLKPEDTAVYYCAAGYRFTTYLVYNYWGQGTQVTVSS", "polyreactivity (PSR sort gate)": "high polyreactivity"}
{"sequence": "QVQRVESGGGLVQAGGSHPLSCAASGITLRYYAMGWYRQAPGKERELVAAISGRGGGTYYADSVKGRFTISRDNAKNTVYLQMNSLKPEDTAVYYCNAVGQQQVEYEYWGQGTQVTVSS", "polyreactivity (PSR sort gate)": "high polyreactivity"}
{"sequence": "QVQRVESGGGLVQAGGSHRLSCAASGSIFVVYTMGWYRPAPGKERELVAAITQNGGSSTYYADSVKGRFTISRDNAKNTVYLQMNSLKPEDTAVYYCNKDILSPVVRIFKYGYDMDYWGQGTQETVSS", "polyreactivity (PSR sort gate)": "low polyreactivity"}
{"sequence": "QVQRVESGGGLVQAGGSLGLSCAASGFTFIKYAMGWYRQAPGKEREFVASITYRGGSTYYADSVKGRLTISRDNAKNTVYLQMNSLKPEDTAVYYCAAGGPGRRYRVDYWGQGTQVTVSS", "polyreactivity (PSR sort gate)": "high polyreactivity"}
